{"source": "patent US8642834B2", "about": "“Methods for the identification of agents that inhibit mesenchymal-like tumor cells or their formation” (OSI Pharmaceuticals, LLC, priority 2009, dated 2014)", "molecules": {"B1": {"name": "OSM: Oncostatin M from R&D systems, used at 100 ng/ml (protein, UniProt P13725 26-221, looked up)", "Oncostatin-M": "AAIGSCSKEYRVLLGQLQKQTDLMQDTSRLLDPYIRIQGLDVPKLREHCRERPGAFPSEETLRGLGRRGFLQTLNATLGCVLHRLADLEQRLPKAQDLERSGLNIEDLEKLQMARPNILGLRNNIYCMAQLLDNSDTAEPTKAGRGASQPPTPTPASDAFQRKLEGCRFLHGYHRFMHSVGRVFSKWGESPNRSRR"}}, "assay_type_in_all_cases": "cell-based, human", "key": {"CFPAC-1 cells [1]": {"system": "CFPAC-1 cells", "assay": "MET/EMT reversion experiment (ligand withdrawal)", "conditions": "ligand 14 days, then removed; morphology and E-cadherin/vimentin immunoblot", "method": "Cells were cultured in complete medium with and without ligand for 14 days, during which time the media and ligand treatment was replaced every 3-4 days. 3 Days prior to the first time point (Day 14), cells were trypsinised, counted and seeded into plastic 35 mm dishes at appropriate seeding densities for the first 3 collection time points. 3 Days prior to the last of the 3 collection time points, the procedure was repeated for the second 3 collection time points, and so on until all time points were collected. Ligand was removed from all cultures at Day 14. At the time of harvest, cells were harvested as described in the western blotting section above. All samples were micro-centrifuged and stored at −80° C. until the end of the experiment, at which time all samples were processed for western blotting."}, "CFPAC1 cells": {"system": "CFPAC1 cells", "assay": "2D immunofluorescence of E-cadherin and vimentin", "conditions": "cells treated 7 days with ligand, compared to untreated cells", "method": "Cells were plated on coverslips and stimulated with ligand the following day (day 0). On day 4, medium and ligands were refreshed. After 7 days, the cells were fixed in 4% paraformaldehyde (EMS#15701)/PBS (Gibco #14190) for 10 minutes at room temperature, and then permeabilized in 0.1% Triton X-100 (Sigma #P1379)/PBS for 10 minutes. Cells were blocked in 3% BSA/PBS for one hour and incubated in primary antibody solution (E-cadherin, Santa Cruz #sc21791 and Vimentin, Chemicon #AB5733 in blocking buffer) for two hours at room temperature. Cells were washed in PBS and incubated in secondary antibody (Invitrogen #A11029 and Chemicon #AP194R) for one hour followed by nuclear counterstain TO-PRO3 (Invitrogen #T3605). Coverslips were mounted on slides with Pro-Long Gold antifade reagent (Invitrogen P36934). Images were captured on a Leica DMRXE microcope with SP2 scanner using Leica Confocal Software."}, "CFPAC-1 cells [2]": {"system": "CFPAC-1 cells", "assay": "Cell morphology by light microscopy", "conditions": "treated 7 days; versus untreated cells that formed colonies", "method": "The CFPAC1 cell line was cultured in DMEM media (Gibco #11960) supplemented with 10% FBS (Sigma), 2 mM L Glutamine (Gibco), at 37° C., 5% CO2. For 7 day treatments, cells were seeded on tissue culture plastic in complete growth media and allowed to attach overnight at cell densities that would provide approximately 60-80% confluence at end of experiment. Ligand and/or inhibitor was added the following day (Day 0) in complete growth media and incubated at 37° C., 5% CO2. Ligand source and concentrations used are as follows: [1] From R&D systems, SDF-1α (stromal derived factor-1 alpha) at 100 ng/ml, TRANCE (TNF-related activation induced cytokine) at 50 ng/ml, FGF1 (fibroblast growth factor acidic) at 10 ng/ml, FGF2 (fibroblast growth factor basic) at 10 ng/ml, BMP4 (bone morphogenetic protein 4) at 100 ng/ml, BMP7 (bone morphogenetic protein 7) at 100 ng/ml, IGF2 (insulin-like growth factor 2) at 100 ng/ml, OSM (Oncostatin M) at 100 ng/ml, NRG1 (Neuregulin-1) at 50 ng/ml, PDGFaa (Platelet derived growth factor a) at 50 ng/ml, PDGFbb (platelet derive growth factor b) at 30 ng/ml, Ang2 (Angiopoeitin 2) at 400 ng/ml, amphiregulin at 100 ng/ml, HMGB 1 (Human high-mobility group box 1 protein) at 50 ng/ml; [2] […]"}}, "data": [{"molecule": "B1", "values": [{"measurement": "Reversal of EMT upon withdrawal of ligand", "setting": "CFPAC-1 cells [1]", "result": "can be reversed"}, {"measurement": "E-cadherin and vimentin staining", "setting": "CFPAC1 cells", "result": "strong vimentin staining with no E-cadherin"}, {"measurement": "Cell morphology", "setting": "CFPAC-1 cells [2]", "result": "less compact with more elongated cell morphology"}]}]}
